Experiment: yeast display, Sf9 membrane polyspecificity reagent, FACS + sequencing; frameworks hold sequencing errors
Method in brief: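 Nanobodies from a synthetic yeast display library (Saccharomyces cerevisiae BJ5465), induced 36–48 hours with galactose, were stained 1 hour at 4 °C with 10% biotinylated, detergent-solubilized Sf9 membrane reagent, enriched on streptavidin microbeads, then FACS-sorted. Anti-HA (expression) and streptavidin (reagent binding) fluorescence set low and high (top ~1%) gates. Polyreactivity labels come from the gate of origin. Genes were colony-PCR amplified, MiSeq 2 × 250 sequenced and filtered by CDR length.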

Row | Sequence | polyreactivity (PSR sort gate)
1 | QVQLVESGGGLVQAGGSLRLSCAASGIIFEGYAMGWYRQATGKERELVAAITGTADGTYYADSVKGRFTISRDNAKNTVYLQMNSLKPEDTAVYYCAKGSVVYLLRGVKGHSMDYWGQGTQVTVSS | low polyreactivity
2 | QVQLVESGGGLVQAGGSLRLSCAASGIIFELYAMGWYRQAPGKERELVAAISNGDSTNYADSVKGRFTISRDNAKNTVYLQMNSLKPEDTAVYYCAARYSTYVRYDYWGQGTQVTVSS | low polyreactivity
3 | QVQLVESGGGLVQAGGSLRLSCAASGIIFEPNAMGWYRQAPGKERELVAAIDSGGITYYADSVKGRFTISRDNAKNTVYLEMNSLKPEDTAVYYCAKRAYTRQYWYGYGYWGQGTQVTVSS | high polyreactivity
4 | QVQLVESGGGLVQAGGSLRLSCAASGIIFFSNTMVGYRQAPGKDREFVAAITWSTGNTYYADSVKGRFTISRDNAKNTVYLQMNSLKTEDTAVYYCYAEYLVITLYGGVEFDYWGQGTQVTVSS | low polyreactivity
5 | QVQLVESGGGLVQAGGSLRLSCAASGIIFFSYAMGWYRQAPGKERELVAAISGTGGNTYYADSVKGRFTISRDNAKNTVYLQMNSLKPEDTAVYYCAADQEWYYYFDSFAYYILGYWGQGTQVTVSS | high polyreactivity
6 | QVQLVESGGGLVQAGGSLRLSCAASGIIFFWNAMGWYRQAPGKERELVAAISSGGSTYADSVKGRFTISRDNAKNTVYLQMNSLKPEDTAVYYCAARFYHGYRPYSAIYGYGYWGQGTQVTVSS | low polyreactivity
7 | QVQLVESGGGLVQAGGSLRLSCAASGIIFFYYGMGWYIQAPGKERELVARISSGGSTNYADSVKGRFTISRDNAKITVYLQMNSLKQEDTAVYYCAARISTRYGYWGQGTQVTVSS | low polyreactivity
8 | QVQLVESGGGLVQAGGSLRLSCAASGIIFFYYVMGWYRQAPGKERELVAAISSDGSSTYYADSVKGRFTISRDNAKNTVNLQMNSQKPEDTAVYYCAAELILYPYDFNFWGQGTQVTVSS | high polyreactivity
9 | QVQLVESGGGLVQAGGSLRLSCAASGIIFGDYAMGWYRQAPGKEMELVAAITWSGGSTYYADSVKGRFTISRDNAKNTVYLQMNSLKPEDTAFYYCNADDDGRVSSTIVEYWGQGTQVTVSS | low polyreactivity
10 | QVQLVESGGGLVQAGGSLRLSCAASGIIFGFNTMGWYRQAPGKERELVAVITWSGGSTYYADSVKGRFTISRVFAKNTVYLQMNCLNPDDTAVYYCATVRAVEYNYWGQGTQVTVSS | low polyreactivity
11 | QVQLVESGGGLVQAGGSLRLSCAASGIIFGFYAMGWYRQAPGKERELVAAITIDGSTYYADSVKGRFTISRDNAKTTVYLQMNILKPEDTAVYYCGAQYLNVYYWEDYLGQGTQVTVSS | low polyreactivity
12 | QVQLVESGGGLVQAGGSLRLSCAASGIIFGIYAMGWYRQAPGKEREFVAAISWSDGSTRYADSVKGRFTISRDNAKNTVYLQMNCLKPEDTAVYYCNTDIGPLDFGEYSYPDDYWGQGTQVTVSS | low polyreactivity
13 | QVQLVESGGGLVQAGGSLRLSCAASGIIFGIYDMGWYRQAPGKERELVAAIRRSGGSTYYADSVKGRFTISRDNAKNTVYLQMNSLKPEDTAVYYCAATRHSRVRGGDYWGQGTQVTVSS | low polyreactivity
14 | QVQLVESGGGLVQAGGSLRLSCAASGIIFGLYTMGWYRQAPGKERELVAAISDSGGRTYYADSVKGRFTISRDNAKNTVYLQMNSLKPEDTAVYYCAAEFWYVLEYNYWGQGTQVTVSS | high polyreactivity
15 | QVQLVESGGGLVQAGGSLRLSCAASGIIFGNYAMGWYRQAPGKERELVAAITNGSSTNYADSVKGRFTISRDNAKNTVYLQMNSLKPEDTAVYYCARDGIGADGYDYWGQGTQVTVSS | low polyreactivity
16 | QVQLVESGGGLVQAGGSLRLSCAASGIIFGNYAMGWYRQEPGKERELVATITWRGGSTYYADSVKGRFTISRDNAKNTVYLQMISLKPEDTAVYYCARPYASYRSFYYYGYWGQGTQVTVSS | high polyreactivity
17 | QVQLVESGGGLVQAGGSLRLSCAASGIIFGRYAMGWYRQAPGKEREFVAAIRSRGGSTYYADSVKGRFTISRDNAKNTVYLQMNSLKPEDTAVYYCNAGHIYAGYRREYDYWGQGTQVTVSS | high polyreactivity
18 | QVQLVESGGGLVQAGGSLRLSCAASGIIFGTNAMGWYRQAPGKERELVASITSDGSTYYADSVKGRFTISRDNAKNTVYLQMNSLKPEDTAVYYCAADHYWADGVYLYDTYEYGYWGQGTQVTVSS | low polyreactivity
19 | QVQLVESGGGLVQAGGSLRLSCAASGIIFGTYAMGWYRQAPGKERELVAAISSGGRTYYADSVKGRFTISRDNAKNTVYLQMNSLKPEDTAVYYCNRPPWSRGSNYWGQGTQVTVSS | high polyreactivity
20 | QVQLVESGGGLVQAGGSLRLSCAASGIIFGVYAMGWYRQAPGKERELVASIRYSSVRTYYADSVKGRFTISRDNAKNTVYLQMNSLKPEDTAVYYCAKYYVWPRYGYWGQGTQVTVSS | high polyreactivity
21 | QVQLVESGGGLVQAGGSLRLSCAASGIIFGVYAMGWYRQAPGQERELVAAIDGNGSSTYYADSVKGRFTISRDNAKNTVYLQMNSLKPEDTAVYYCAAGYWSYLYYWYDFDYWGQGTQVTVSS | low polyreactivity

Row | Sequence | polyreactivity (PSR sort gate)
22 | QVQLVESGGGLVQAGGSLRLSCAASGIIFGWYAMGWYRQAPGKERELVADISSDDSTYYADSVKGRFTISRDNAKNTVYLQMNSLKPEDTAVYYCAADTSYGSYWSLYYYNYYWGQGTQVTVSS | high polyreactivity
23 | QVQLVESGGGLVQAGGSLRLSCAASGIIFGYNVMGWYRQAPGKERELVAAISGSGSSTYYADSVKGRFTISRDNAKITVYLQMNSLKPEDTAVYYCAARRYSTKRWRMYYWGQGTQVTVSS | high polyreactivity
24 | QVQLVESGGGLVQAGGSLRLSCAASGIIFHRYAMGWYRQAPGKERELVAAISWNGGSTYYADSVKGRFTISRDNAKNTVYLQMNSLKPEDTAVYYCAARKLYSNISGYWGQGTLVTVSS | high polyreactivity
25 | QVQLVESGGGLVQAGGSLRLSCAASGIIFHVYAMGWYRQAPGKERELVAAISDDGSTNYADSVKGRFTISRDNAKNTVYLQMNSLKPEDTAVYYCAKESWGRLYYRYDYWGQGTQVTVSA | low polyreactivity
26 | QVQLVESGGGLVQAGGSLRLSCAASGIIFHYYAMGWSRPEPGKERELVAAITSSGDRTYYADSVKGRFTISRDTAKNTVYLQMNSLKPEDTAVYYCAKDVWRWFGYWGQGTQVTVSS | high polyreactivity
27 | QVQLVESGGGLVQAGGSLRLSCAASGIIFHYYAMGWYRQAPGKEREFVASISFSGASTYYADSVKGRFTISRDNAKNTVYLQMNSLKPEDTAVYYCAARYLYGPKYYYCGQGTQVTVSS | high polyreactivity
28 | QVQLVESGGGLVQAGGSLRLSCAASGIIFIFYDMGWSRQAPGKERELVATITSGTNTYADSVKGRFTISRDNAKNTVYLQMNSLKPEDTAVYSCAAGFSPASQLDYWGQGTQVTVSS | low polyreactivity
29 | QVQLVESGGGLVQAGGSLRLSCAASGIIFIGNAMGWYRQAPGKERELVAAISRRGGRTYYADSVKGRFTISRDNAKNTVYLQMNSLKPEDTAVYYCNAEITVNDDDYWGQGTQVTVSS | low polyreactivity
30 | QVQLVESGGGLVQAGGSLRLSCAASGIIFIGYAMGWYSQAPGKERELVAAISTRGSTTNYADSVKGRFTISRDNAKNTVYLQMNSLKPEDTAVYYCAARKYPSYRYPTGDYWGQGTQVTVSS | high polyreactivity
31 | QVQLVESGGGLVQAGGSLRLSCAASGIIFITNAMGWYRQAPGKERDLVAVISFSGGGTYADSVKGRFTISRDNAKNTVYLQMNSLTPEDTAVYYCAKYWLSALTLEDDYWGQGTQVTVSS | low polyreactivity
32 | QVQLVESGGGLVQAGGSLRLSCAASGIIFIVNAMGWYRQAPGKERELVAAISNGGSTNYADSVKGRFTISRDNAKNTVYLQMNSLKPEDTAVYYCADDYSTWLRAYDYWGQGTQVTVSS | low polyreactivity
33 | QVQLVESGGGLVQAGGSLRLSCAASGIIFKGYDMGWYRQAPGKERELVAAISSGSTNYADSVKGRFTISRDNAKNTVYLQMNSLKPEDTAVYYCAAYNDTVPSAAHIYESWGQGTQVTVSS | low polyreactivity
34 | QVQLVESGGGLVQAGGSLRLSCAASGIIFKRYAMGWYRQAPGKERELVATITRDGRTSYADSVKGRFTISRDNAKNTVYLQMNSLKPEDTAVYYCNKRGTYAPPTPGNLFDYWGQGTQVTVSS | low polyreactivity
35 | QVQLVESGGGLVQAGGSLRLSCAASGIIFKWYGMGGYRQAPGKERELVAGITWRTGSTYYADSVKGRFTISRDNAKNTVYLQMNSLKPEDTAVYYCAARLYTYPKGKYWGQGTQVTVSS | high polyreactivity
36 | QVQLVESGGGLVQAGGSLRLSCAASGIIFLDNAMVWYRQAPGKERELVAAITTGGITYYADSVKGRFTISRDNAKNTVYLQMNSLKPEDTAVYYCAADNEWPRYDYWGQGTQVTVSS | low polyreactivity
37 | QVQLVESGGGLVQAGGSLRLSCAASGIIFLENAMGWYRQAPGKERELVAGISSGGNTNYADSVKGRFTISRDNAKNTVYLQMNSLKPEDTAVYYCNTDWYLPRYVLLGYFSGTEDYWGQGTQVTVSS | low polyreactivity
38 | QVQLVESGGGLVQAGGSLRLSCAASGIIFLNYAMGWYRQAPGKERELVAAITTSGGNTYYADSVKGRFTISRDNAKNTVYLQMNSLKPEDTAVYYCAATDLYFWYPYWFAFEYDYWGQGTQVTVSS | high polyreactivity
39 | QVQLVESGGGLVQAGGSLRLSCAASGIIFLWYAMGWYRQAPGKERELVAAISRTGSSTYYADSVKGRFTISRDNAKNTVYLQMNSLKPEDTAVYYCAAAYYSKRSWRFDYWGQGTQVTVSS | high polyreactivity
40 | QVQLVESGGGLVQAGGSLRLSCAASGIIFLYYAMGWYRQAPGKERELVAAISSGGSTYYADSVKGRFTISRDNAKNTFYLQLNSLKPEDTAVYYCAVGRVGRFYYWGQGTQVSVSS | high polyreactivity
41 | QVQLVESGGGLVQAGGSLRLSCAASGIIFNGNTMGWYRQAPGKERELVAAITSGGTTSYADSVKGRFTISRDNAKNTVYLQMNSLKPADTAVYYCAADHPAFGPGYSFDYWGQGTQVTVSS | low polyreactivity
